Among the data in article PMC7302216 are stoichiometry N values, retold here.

The target in the test is SARS-CoV 2P DS S (SARS-CoV) (UniProt P59594). Kind of test: negative-stain electron microscopy.

As usually defined, the stoichiometry N is the number of molecules, sites or subunits per partner or assembly. “SARS-CoV 2P DS S (from UniProt P59594 14-1195) (domain or fragment)” had a stoichiometry N of 3.
